Like-named read-outs stand apart in the source and are kept apart here.
T1: mouse CD137 protein (Biacore) (mouse, UniProt P20334 24-178, limits assumed)
T1 construct: Construct used as SPR analyte not described
T1 sequence: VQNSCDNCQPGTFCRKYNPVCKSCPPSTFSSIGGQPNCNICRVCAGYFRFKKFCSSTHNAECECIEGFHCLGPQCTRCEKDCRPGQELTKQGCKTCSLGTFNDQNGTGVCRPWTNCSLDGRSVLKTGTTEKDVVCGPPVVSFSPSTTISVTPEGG

T2: rat CD137 on the cell surface (rat, UniProt Q4W8J3 24-258)
T2 sequence: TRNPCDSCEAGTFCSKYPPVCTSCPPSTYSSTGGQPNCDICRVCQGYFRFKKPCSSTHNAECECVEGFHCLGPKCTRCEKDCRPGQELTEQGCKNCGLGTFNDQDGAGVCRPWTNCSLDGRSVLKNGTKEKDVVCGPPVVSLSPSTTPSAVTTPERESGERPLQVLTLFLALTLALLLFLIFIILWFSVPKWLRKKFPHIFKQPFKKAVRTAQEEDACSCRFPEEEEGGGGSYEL

T3: OX40 overexpressed on HEK293F cells (UniProt P43489 29-277, limits assumed)
T3 construct: whole, on cells
T3 sequence (looked up): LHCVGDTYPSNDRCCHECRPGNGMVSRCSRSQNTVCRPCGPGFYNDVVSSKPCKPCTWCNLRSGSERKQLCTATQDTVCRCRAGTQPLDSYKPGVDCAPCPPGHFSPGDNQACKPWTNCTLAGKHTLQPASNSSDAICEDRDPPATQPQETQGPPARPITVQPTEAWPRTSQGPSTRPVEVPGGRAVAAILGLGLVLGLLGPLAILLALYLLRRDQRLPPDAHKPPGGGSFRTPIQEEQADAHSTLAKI

T4: GITR overexpressed on HEK293F cells (UniProt Q9Y5U5 26-241, limits assumed)
T4 construct: whole, on cells
T4 sequence (looked up): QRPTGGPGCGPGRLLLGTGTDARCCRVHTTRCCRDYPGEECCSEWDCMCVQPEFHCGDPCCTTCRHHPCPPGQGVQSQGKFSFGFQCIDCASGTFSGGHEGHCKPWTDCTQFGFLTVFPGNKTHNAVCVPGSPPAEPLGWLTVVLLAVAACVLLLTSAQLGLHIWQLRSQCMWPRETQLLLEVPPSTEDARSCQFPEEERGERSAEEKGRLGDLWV

T5: CD27 overexpressed on HEK293F cells (UniProt P26842 20-260, limits assumed)
T5 construct: whole, on cells
T5 sequence (looked up): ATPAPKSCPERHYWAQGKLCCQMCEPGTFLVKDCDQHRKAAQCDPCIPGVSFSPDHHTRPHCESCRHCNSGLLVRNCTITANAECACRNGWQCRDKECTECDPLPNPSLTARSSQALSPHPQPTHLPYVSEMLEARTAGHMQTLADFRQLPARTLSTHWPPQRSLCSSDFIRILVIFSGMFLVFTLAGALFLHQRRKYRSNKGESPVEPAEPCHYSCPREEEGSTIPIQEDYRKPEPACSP

T6: CD120a
T6 chain: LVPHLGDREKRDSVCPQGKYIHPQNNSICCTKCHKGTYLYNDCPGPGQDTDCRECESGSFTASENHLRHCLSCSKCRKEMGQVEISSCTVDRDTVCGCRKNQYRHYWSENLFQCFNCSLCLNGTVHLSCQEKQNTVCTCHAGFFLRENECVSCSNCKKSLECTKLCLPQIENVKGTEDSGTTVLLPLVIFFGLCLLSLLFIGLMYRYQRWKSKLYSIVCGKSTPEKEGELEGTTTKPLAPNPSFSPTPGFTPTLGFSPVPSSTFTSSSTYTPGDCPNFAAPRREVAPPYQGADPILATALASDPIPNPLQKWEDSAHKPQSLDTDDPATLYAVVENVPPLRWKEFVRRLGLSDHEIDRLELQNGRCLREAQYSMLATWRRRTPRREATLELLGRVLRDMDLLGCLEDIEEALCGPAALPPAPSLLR

T7: mouse CD137 fused with human FC fragment (mouse, UniProt P20334 24-178, limits assumed)
T7 construct: also called mouse CD137-Fc; not shown: human Fc fragment
T7 sequence: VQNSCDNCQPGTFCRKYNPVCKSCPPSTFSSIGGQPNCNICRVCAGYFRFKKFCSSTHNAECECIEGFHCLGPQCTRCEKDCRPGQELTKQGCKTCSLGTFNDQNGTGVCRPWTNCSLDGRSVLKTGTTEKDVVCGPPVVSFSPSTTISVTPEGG

B1: AG10059 (antibody, human IgG4 S228P, kappa, V domains shown)
VH: EVQLVESGGGLVQPGGSLRLSCAASGYSITSGHYWAWIRQAPGKGLEWVSSISGYGSTTYYADSVKGRFTISRDNSKNTLYLQLNSLRAEDTAVYYCARGGSDAVLGDWFAYWGQGTLVTVSS
VL: DIQLTQSPSSLSASVGDRVTITCRASQGIGSFLAWYQQKPGKAPKLLIYDASNLETGVPSRFSGSGSGTDFTLTISSLQPEDFATYYCQQGYYLWTFGQGTKVEIKR
B2: AG10058 (antibody, human IgG4 S228P, kappa, V domains shown)
VH: EVQLVESGGGLVQPGGSLRLSCAASGFSLSTSGVGVGWIRQAPGKGLEWLALIDWDDDKYYSPSLKSRLTISRDNSKNTLYLQLNSLRAEDTAVYYCARGGSDTVLGDWFAYWGQGTLVTVSS
VL: DIQLTQSPSSLSASVGDRVTITCRASQSVSPYLAWYQQKPGKAPKLLIYDASSLESGVPSRFSGSGSGTDFTLTISSLQPEDFATYYCQQGYSLWTFGQGTKVEIKR

What was measured:
[1] = biological target: T1, mouse CD137 protein (Biacore); assay: SPR Biacore
[2] = biological target: T2, rat CD137 on the cell surface; assay: flow cytometry, HEK293F cells expressing CD137 [Cont.]
[3] = biological target: T3, OX40 overexpressed on HEK293F cells; assay: flow cytometry, HEK293F cells expressing the receptor [Cont.]
[4] = biological target: T8, CD40 overexpressed on HEK293F cells (UniProt P25942 21-277, limits assumed); assay: as above
T8 construct: whole, on cells
T8 sequence (P25942 21-277 limits assumed): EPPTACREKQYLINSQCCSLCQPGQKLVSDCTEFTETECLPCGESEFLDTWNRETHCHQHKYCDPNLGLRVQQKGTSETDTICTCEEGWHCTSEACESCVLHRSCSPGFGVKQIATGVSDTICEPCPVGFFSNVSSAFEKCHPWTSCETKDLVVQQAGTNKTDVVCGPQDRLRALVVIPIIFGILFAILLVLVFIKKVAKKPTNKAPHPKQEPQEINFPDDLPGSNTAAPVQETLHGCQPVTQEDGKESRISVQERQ

[5] = biological target: T4, GITR overexpressed on HEK293F cells; assay: as above
[6] = biological target: T5, CD27 overexpressed on HEK293F cells; assay: as above
CD120a [7] = biological target: T6, CD120a; assay: as above
[8] = biological target: T7, mouse CD137 fused with human FC fragment; assay: ELISA, CD137-Fc coated in serial dilution, IgG 5 µg/mL, protein L-HRP
CD120a [9] = biological target: T6, CD120a; assay: flow cytometry, HEK293F cells expressing the receptor [Cont.]
[10] = biological target: T3, OX40 overexpressed on HEK293F cells; assay: flow cytometry, HEK293F cells expressing the receptor, antibody 100 nM
[11] = biological target: T8, CD40 overexpressed on HEK293F cells; assay: as above
[12] = biological target: T4, GITR overexpressed on HEK293F cells; assay: as above
[13] = biological target: T5, CD27 overexpressed on HEK293F cells; assay: as above

| Binder | binding result [1] | binding result [2] | binding result [3] | binding result [4] | binding result [5] | binding result [6] | binding result (CD120a [7]) | binding result [8] | binding result (CD120a [9]) | Mean [10] | Mean [11] | Mean [12] | Mean [13] |
| --- | --- | --- | --- | --- | --- | --- | --- | --- | --- | --- | --- | --- | --- |
| B1 | no binding | no binding (tested: 100 nM (text paragraph 220)) | no binding (tested: 100 nM (text paragraph 226)) | no binding (tested: 100 nM (text paragraph 226)) | no binding (tested: 100 nM (text paragraph 226)) | no binding (tested: 100 nM (text paragraph 226)) | no binding (tested: 100 nM (text paragraph 226)) | no binding | – | – | – | – | – |
| B2 | – | – | – | – | – | – | – | – | no binding (tested: 100 nM (text paragraph 226)) | 189000 | 9300 | 18600 | 6660 |

Reference: patent US20190055314A1 (ADAGENE, published 2019)
